Tests used:
[1] = biological target: full-length class B TetR (wild-type, Tn10-encoded) (Tn10-encoded (organism not stated))
[2] = biological target: T1, full-length class C TetR (Escherichia coli) (UniProt P03039)
T1 sequence: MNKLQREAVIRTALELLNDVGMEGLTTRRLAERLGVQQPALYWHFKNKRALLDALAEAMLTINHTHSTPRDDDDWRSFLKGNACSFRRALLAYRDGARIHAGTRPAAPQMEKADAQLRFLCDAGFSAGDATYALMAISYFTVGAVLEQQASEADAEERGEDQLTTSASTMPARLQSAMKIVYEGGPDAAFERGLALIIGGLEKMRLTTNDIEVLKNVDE

[3] = biological target: full-length class D TetR (Escherichia coli) (UniProt P0ACT4)
[4] = biological target: T2, full-length class E TetR (Escherichia coli) (UniProt P21337)
T2 sequence: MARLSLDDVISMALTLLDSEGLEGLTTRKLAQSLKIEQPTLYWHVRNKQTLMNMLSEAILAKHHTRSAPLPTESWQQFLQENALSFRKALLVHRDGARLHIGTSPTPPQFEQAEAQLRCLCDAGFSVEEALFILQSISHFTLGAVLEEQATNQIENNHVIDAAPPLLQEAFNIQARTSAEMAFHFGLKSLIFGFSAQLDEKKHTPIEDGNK

B1: deletion mutant of the Tn10-encoded class B TetR (Δ26-53) (protein)
chain: MSRLDKSKVINSALELLNEVGIEGLALAIEMLDRHHTHFCPLEGESWQDFLRNKAKSFRCALLSHRDGAKVHLGTRPTEKQYETLENQLAFLCQQGFSLENALYALSAVGHFTLGCVLEDQEHQVAKEERETPTTDSMPPLLRQAIELFDHQGAEPAFLFGLELIICGLEKQLKCESGS
- Factor of Transdominance (β-galactosidase activity with against without the deletion mutant) [1]: 22 fold
- Factor of Transdominance (β-galactosidase activity with against without the deletion mutant) [2]: 2 fold
- Factor of Transdominance (β-galactosidase activity with against without the deletion mutant) [3]: 1.1 fold
- Factor of Transdominance (β-galactosidase activity with against without the deletion mutant) [4]: 1 fold

From patent US20030022315A1
